Residue numbers refer to the chain shown, from its start. One block for each binder: values may come before it.
Tests used:
[1] = target: T1, PTGFRN as used in the Octet / BLI affinity measurement (UniProt Q9P2B2 26-832, limits assumed); assay: Octet method
T1 sequence (looked up): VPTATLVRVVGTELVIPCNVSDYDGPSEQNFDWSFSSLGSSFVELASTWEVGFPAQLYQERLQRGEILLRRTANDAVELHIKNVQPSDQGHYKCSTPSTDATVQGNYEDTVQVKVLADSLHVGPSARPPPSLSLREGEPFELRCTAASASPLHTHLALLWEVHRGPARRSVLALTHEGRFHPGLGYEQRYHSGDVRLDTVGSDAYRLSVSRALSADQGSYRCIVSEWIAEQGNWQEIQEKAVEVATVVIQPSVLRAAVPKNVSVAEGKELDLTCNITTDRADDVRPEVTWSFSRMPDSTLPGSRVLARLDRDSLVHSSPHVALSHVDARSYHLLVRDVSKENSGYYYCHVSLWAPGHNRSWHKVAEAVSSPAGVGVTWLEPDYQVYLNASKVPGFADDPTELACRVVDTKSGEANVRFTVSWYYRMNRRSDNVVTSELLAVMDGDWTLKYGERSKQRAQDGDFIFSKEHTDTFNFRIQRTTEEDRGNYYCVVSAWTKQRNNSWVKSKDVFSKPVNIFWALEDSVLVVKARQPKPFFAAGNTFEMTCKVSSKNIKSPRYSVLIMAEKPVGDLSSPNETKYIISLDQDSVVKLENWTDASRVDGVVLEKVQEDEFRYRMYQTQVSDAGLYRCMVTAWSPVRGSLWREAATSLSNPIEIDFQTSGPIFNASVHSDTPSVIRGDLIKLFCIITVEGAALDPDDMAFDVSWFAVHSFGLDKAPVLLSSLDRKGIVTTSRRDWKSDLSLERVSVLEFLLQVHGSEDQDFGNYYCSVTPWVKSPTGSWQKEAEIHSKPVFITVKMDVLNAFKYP

[2] = target: T2, Prostaglandin F2 Receptor Inhibitor (PTGFRN), expressed by cells (human, UniProt Q9P2B2 26-879); assay: flow binding on cells
T2 construct: whole, on cells; Also used for the endogenous protein in Brij-O10 cell lysates in the co-immunoprecipitation experiments; also called cell surface PTGFRN; prostaglandin F2 receptor negative regulator
T2 sequence (looked up): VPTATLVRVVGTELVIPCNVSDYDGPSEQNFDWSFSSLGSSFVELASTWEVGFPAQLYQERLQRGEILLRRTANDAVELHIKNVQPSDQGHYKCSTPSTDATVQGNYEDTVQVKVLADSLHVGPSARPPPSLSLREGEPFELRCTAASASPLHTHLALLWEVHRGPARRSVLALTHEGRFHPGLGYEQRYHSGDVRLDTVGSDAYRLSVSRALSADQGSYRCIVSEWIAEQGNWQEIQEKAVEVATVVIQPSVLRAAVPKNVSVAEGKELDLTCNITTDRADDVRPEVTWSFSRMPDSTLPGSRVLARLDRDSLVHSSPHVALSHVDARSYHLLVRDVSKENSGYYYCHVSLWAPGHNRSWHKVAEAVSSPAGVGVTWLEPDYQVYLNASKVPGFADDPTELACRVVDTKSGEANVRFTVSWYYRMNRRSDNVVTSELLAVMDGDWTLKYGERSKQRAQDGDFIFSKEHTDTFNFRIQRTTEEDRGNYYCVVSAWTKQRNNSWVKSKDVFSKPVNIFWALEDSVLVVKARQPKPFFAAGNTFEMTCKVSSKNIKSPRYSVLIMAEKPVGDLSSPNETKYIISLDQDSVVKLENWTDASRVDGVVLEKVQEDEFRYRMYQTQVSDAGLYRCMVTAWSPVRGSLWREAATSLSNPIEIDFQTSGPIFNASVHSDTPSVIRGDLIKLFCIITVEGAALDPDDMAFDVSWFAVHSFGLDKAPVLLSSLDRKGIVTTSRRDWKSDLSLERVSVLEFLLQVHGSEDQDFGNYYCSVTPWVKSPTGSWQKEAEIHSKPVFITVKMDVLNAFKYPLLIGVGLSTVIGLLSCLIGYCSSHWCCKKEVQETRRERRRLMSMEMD

[3] = target: T1, PTGFRN as used in the Octet / BLI …; assay: Bi-Layer Interferometry (BLI), Octet Red96

Kd [1]: 5.2 nM
B1: fully human anti-PTGFRN monoclonal antibody 4F8 (antibody, IgG4, V domains shown)
VH: EVQLVESGEGLVQPGRSLRLSCAASGFTFDDYAMHWVRQAPGKGLEWVSGISWDSGRIGYADSVKGRFTISRDNAKNSLYLQMNSLRAEDTALYYCAKDRGGGNWNYYYYGMDVWGQGTTVTVSS
VL: DIQMTQSPSSLSASVGDRVTITCRASQGISNYLAWFQQKPGKAPKSLIYAASSLQSGVPSKFSGSGSGTDFTLTISSLQPEDFATYYCQQYNSFPFTFGPGTKVDIK

binding result [2]: binds
B2: fully human anti-PTGFRN monoclonal antibody 12D8 (antibody, IgG1, V domains shown)
VH: EVQLVESGGGLVQPGRSLRLSCAASGFTFDDYAMHWVRQAPGKGLEWVSGISWSSGSLGYEDSVKGRFTISRDNAKKTLYLQMNSLRAEDTALYYCAKDMGFGDFLYYYGMDVWGQGTTVTVSS
VL: EIVLTQSPGTLSLSPGERATLSCRASQSVSSSYLTWYQQKPGQAPRLLIYGASSRATGIPDRFSGSGSGTDFTLTIRRLEPEDFAVYYCQQYGDSPPWTFGQGTKVEIK

Kd [3]: 0.001 nM
B3: fully human anti-PTGFRN monoclonal antibody 8C7 (antibody, V domains shown)
VH: QLQLQESGPGLVKPSETLSLTCTVSGGSISSSSYYWGWIRQPPGKGLEWIGSIYYGGSTYYNPSLKSRVTISVDTSTNQFSLKLNSVTAADTAVYYCARQGLGSFDCWGQGTLVTVSS
VL: DVVMTQSPLSLPVTLGQPASISCRSSQSLVHSDGNTYLNWFQQRPGQSPRRLIYKVSNRDSGVPDRFSGSGSGTDFTLKISGVEAEDVGIYYCMQGTHWPPLTFGGGTKVEIK
notes: also called anti-PTGFRN antibody 8C7; internalizing anti-PTGFRN 8C7

binding result [2]: binds
B4: fully human anti-PTGFRN monoclonal antibody 6B2 (antibody, IgG1, V domains shown)
VH: B3 VH with G37D, S52T, T77K, Q100G, G101N, L102S, G103Y, S104G, F105L, C107Y
VL: B3 VL with T36M, G82R, G96S, L102V, G106Q, V110L

Source: EP4695300A2 (dated 2026)
